Reference: patent US20240361316A1 (ORASURE TECHNOLOGIES, published 2024)

Target: recombinant SARS-CoV-2 Spike 1 subunit (S1), Alpha S1 construct 1 (SARS-CoV-2 (WHO Alpha (WT) variant, …, UniProt P0DTC2 14-674))

B1: recombinant biotinylated human angiotensin-converting enzyme 2 (ACE2-biotin), construct hACE-GS-6xHIS (receptor)
chain: STIEEQAKTFLDKFNHEAEDLFYQSSLASWNYNTNITEENVQNMNNAGDKWSAFLKEQSTLAQMYPLQEIQNLTVKLQLQALQQNGSSVLSEDKSKRLNTILNTMSTIYSTGKVCNPDNPQECLLLEPGLNEIMANSLDYNERLWAWESWRSEVGKQLRPLYEEYVVLKNEMARANHYEDYGDYWRGDYEVNGVDGYDYSRGQLIEDVEHTFEEIKPLYEHLHAYVRAKLMNAYPSYISPIGCLPAHLLGDMWGRFWTNLYSLTVPFGQKPNIDVTDAMVDQAWDAQRIFKEAEKFFVSVGLPNMTQGFWENSMLTDPGNVQKAVCHPTAWDLGKGDFRILMCTKVTMDDFLTAHHEMGHIQYDMAYAAQPFLLRNGANEGFHEAVGEIMSLSAATPKHLKSIGLLSPDFQEDNETEINFLLKQALTIVGTLPFTYMLEKWRWMVFKGEIPKDQWMKKWWEMKREIVGVVEPVPHDETYCDPASLFHVSNDYSFIRYYTRTLYQFQFQEALCQAAKHEGPLHKCDISNSTEAGQKLFNMLRLGKSEPWTLALENVVGAKNMNVRPLLNYFEPLFTWLKDQNKNSFVGWSTDGGGGSGGGGSHHHHHHH
modifications: biotinylated, 1-10 biotins per ACE2 [mole:mole]; positions not given
  EC50: 0.5 nM
